Where a SMILES comes first, the peptide text is derived from it. Where no end group is shown, it is not given here. Side-chain parts run from the residue outwards. The star is where a group is joined. X1 = CCCCc1nc2c(N)nc3ccccc3c2n1Cc1ccc(CNC(=O)COCC(=O)*)cc1; Palmitoyl = CCCCCCCCCCCCCCCC(=O)*; PEG3 = NCCOCCOCCOCCC(=O)O; ADJ12 = not defined here

This is an account of results in US20200316211A1, “LOCALLY ACTING TOLL-LIKE RECEPTOR 7 (TLR7) AND/OR TLR8 AGONIST IMMUNOTHERAPY COMPOUNDS AND THEIR USES” (Altimmune UK Limited, priority 2019, published 2020).

Data set [1] concerns CT26 cells. The experiment in a line: Antitumor activity after intratumoral injection, CT26 right flank model. The following applies: 100 nmol/dose/animal intratumoral, day 1, 3, 5; FIG. 10. It counts as in vivo, BALB/c mice. As for the experimental part:
(§1) Six to eight-week-old female BALB/c mice (Charles River) were injected subcutaneously with 2×10^5 CT26 cells on the right flank. When the tumors reached an average volume of ˜150 mm^3, mice were randomized into seven groups of eight mice per group, approximately 10 days (13 days) post tumor cell grafting, referred as day 0. After randomization, tumor size and body weight were assessed three times a week for the duration of the study. Animals were sacrificed according to the following humane endpoints: tumor volume ≥2000 mm^3, presence of necrotic or ulcerated tumor, impaired mobility including transient prostration or hunched posture, or interference with a vital physiological function. Treatments were initiated on day 1. All animals from group 1 to group 6 received three intratumoral injections of either formulated or non-formulated small molecule TLR7/8 agonists, or vehicle control, once every two days, on day 1, day 3 and day 5, in 50 μl delivery dose. Mice of group 7 were untreated. Animals from group 1 to group 4 were respectively treated with 100 nmol/dose/animal of kHL-12 or pHL-12 both prepared in 28 mM L-Histidine/Mannitol dilution buffer, or 3M-052 (MedChemExpress, teltralimod Cat. No.: HY-109104) prepared in ethanol/sesame oil (1:10), or R848 (Invivogen, R848 VacciGrade™, Cat. Code vac-r848) reconstituted in 28 mM L-Histidine/Mannitol dilution buffer. Mice from group 5 and group 6 received control vehicles in the delivery dose of 50 μl, 28 mM L-Histidine/Mannitol dilution buffer and ethanol/sesame oil (1:10), respectively.
(§2) Body weight was normalized by subtracting the weight of the tumor to the overall body weight.

Data set [2] can be described thus: Appearance (visual) and solubility (RP-HPLC of supernatant) in different buffer conditions. It counts as physicochemical. The following applies: for Solubility/appearance across buffer conditions: change in pH and/or presence of sodium chloride; for HPLC solubility: peak area vs same compound in 10% acetic acid. As for the experimental part: The solubility of peptide conjugates KK-12, HH-12, AH-12 and HL-12 was determined by visual inspection of the solution and by RP-HPLC. Twenty (20) minutes after dispersion of the peptide conjugates in different buffer conditions, the solutions were centrifuged for 10 minutes and the supernatant analyzed by RP-HPLC. The peak area of each peptide conjugate was compared with the area of the same compound made fully soluble in 10% acetic acid. Appearance of the solution was evaluated visually according to the following criteria: clear, very slightly opalescent, slightly opalescent, opalescent or precipitated.

The nature of data set [3]: Change in body weight in the CT26 study (systemic toxicity). In kind it is in vivo, BALB/c mice. The following applies: 100 nmol/dose/animal intratumoral, day 1, 3, 5; body weight minus tumor weight; FIG. 11. As to the method:
as §1, §2

For data set [4] the following is noted: in more than half of the participants; cited from earlier work.
The conditions of data set [5]: intratumoral, very low doses (0.005 to 0.055 mg); cited from earlier work.
The conditions of data set [6]: poloxamer 407 thermogel formulation, intratumoral, animal models; cited from earlier work.

For the molecule “K(Pam)-RRLLHALLALLAHLLRRLK(ADJ12)-NH2 (K(Palmitoyl)RRLLHALLALLAHLLRRLK(ADJ12)-NH2; reading uncertain; also: printed as K(Pam)-RRLLHALLALLAHLLRRLK(ADJ12)-NH2) [pHL-12]”, in data set [1], the “Antitumoral activity (median tumor volume)” value (from here on “Antitumoral activity”) is recorded as “lower level of antitumor activity”.

Consider `CCCCc1nc2c(N)nc3ccccc3c2n1Cc1ccc(CNC(=O)COCC(=O)NCCOCCOCCOCCC(=O)NCCCC[C@H](NC(=O)[C@H](CC(C)C)NC(=O)[C@H](CCCNC(=N)N)NC(=O)[C@H](CCCNC(=N)N)NC(=O)[C@H](CC(C)C)NC(=O)[C@H](CC(C)C)NC(=O)[C@H](C)NC(=O)[C@H](C)NC(=O)[C@H](Cc2c[nH]cn2)NC(=O)[C@H](CC(C)C)NC(=O)[C@H](C)NC(=O)[C@H](CC(C)C)NC(=O)[C@H](Cc2c[nH]cn2)NC(=O)[C@H](C)NC(=O)[C@H](C)NC(=O)[C@H](CC(C)C)NC(=O)[C@H](CC(C)C)NC(=O)[C@H](CCCNC(=N)N)NC(=O)[C@H](CCCNC(=N)N)NC(C)=O)C(N)=O)cc1` [AH-12, Ac-RRLLAAHLALHAALLRRLK(ADJ12)-NH2] (Ac-RRLLAAHLALHAALLRRLK([PEG3-X1])-NH2), for which the “Solubility/appearance across buffer conditions” value in data set [2] is recorded as “change in appearance and/or HPLC solubility”. Also, the HPLC solubility in data set [2] (pH 5.2, NaCl 154 mM) is recorded as greater than 98% HPLC; in data set [2] (pH 5.2, no NaCl), greater than 98% HPLC; in data set [2] (pH 7.5, NaCl 154 mM), 90% HPLC; in data set [2] (pH 7.5, no NaCl), greater than 98% HPLC.

On to `CCCCc1nc2c(N)nc3ccccc3c2n1Cc1ccc(CNC(=O)COCC(=O)NCCOCCOCCOCCC(=O)NCCCC[C@H](NC(=O)[C@H](CC(C)C)NC(=O)[C@H](CCCNC(=N)N)NC(=O)[C@H](CCCNC(=N)N)NC(=O)[C@H](CC(C)C)NC(=O)[C@H](CC(C)C)NC(=O)[C@H](Cc2c[nH]cn2)NC(=O)[C@H](C)NC(=O)[C@H](Cc2c[nH]cn2)NC(=O)[C@H](CC(C)C)NC(=O)[C@H](C)NC(=O)[C@H](CC(C)C)NC(=O)[C@H](Cc2c[nH]cn2)NC(=O)[C@H](C)NC(=O)[C@H](Cc2c[nH]cn2)NC(=O)[C@H](CC(C)C)NC(=O)[C@H](CC(C)C)NC(=O)[C@H](CCCNC(=N)N)NC(=O)[C@H](CCCNC(=N)N)NC(C)=O)C(N)=O)cc1` [HH-12, Ac-RRLLHAHLALHAHLLRRLK(ADJ12)-NH2] (Ac-RRLLHAHLALHAHLLRRLK([PEG3-X1])-NH2), for which the “Solubility/appearance across buffer conditions” value in data set [2] was “change in appearance and/or HPLC solubility”. Also, the HPLC solubility is listed as greater than 98% HPLC in data set [2] (pH 5.2, NaCl 154 mM); greater than 98% HPLC in data set [2] (pH 5.2, no NaCl); 55% HPLC in data set [2] (pH 7.5, NaCl 154 mM); greater than 98% HPLC in data set [2] (pH 7.5, no NaCl).

As to `CCOCc1nc2c(N)nc3ccccc3c2n1CC(C)(C)O` [R848, 1-(4-amino-2-(ethoxymethyl)-1H-imidazo[4,5-c]quinolin-1-yl)-2-methylpropan-2-ol], in data set [1], the “Antitumoral activity” value is on record as “comparable”. Further, in data set [3], the “Impact on body weight over time” value is “pronounced loss in body weight”.

`CCCCOc1nc(N)c2[nH]c(=O)n(CCCN(CCCN3CCOCC3)Cc3cccc(CC(=O)OC)c3)c2n1` [AZD8848]: in data set [4], the “Clinical safety issues from systemic interferon signaling” value is recorded as “significant influenza-like symptoms”.

As to `CCCCc1nc2c(N)nc3ccccc3c2n1Cc1ccc(CNC(=O)COCC(=O)NCCOCCOCCOCCC(=O)NCCCC[C@H](NC(=O)[C@H](CC(C)C)NC(=O)[C@H](CCCNC(=N)N)NC(=O)[C@H](CCCNC(=N)N)NC(=O)[C@H](CC(C)C)NC(=O)[C@H](CC(C)C)NC(=O)[C@H](CCCCN)NC(=O)[C@H](C)NC(=O)[C@H](CCCCN)NC(=O)[C@H](CC(C)C)NC(=O)[C@H](C)NC(=O)[C@H](CC(C)C)NC(=O)[C@H](CCCCN)NC(=O)[C@H](C)NC(=O)[C@H](CCCCN)NC(=O)[C@H](CC(C)C)NC(=O)[C@H](CC(C)C)NC(=O)[C@H](CCCNC(=N)N)NC(=O)[C@H](CCCNC(=N)N)NC(C)=O)C(N)=O)cc1` [KK-12, Ac-RRLLKAKLALKAKLLRRLK(ADJ12)-NH2] (Ac-RRLLKAKLALKAKLLRRLK([PEG3-X1])-NH2), the “Solubility/appearance across buffer conditions” value in data set [2] is reported as “remains soluble”. Besides, the HPLC solubility in data set [2] (pH 5.2, NaCl 154 mM) is reported as greater than 98% HPLC; in data set [2] (pH 5.2, no NaCl) it was greater than 98% HPLC; in data set [2] (pH 7.5, NaCl 154 mM), greater than 98% HPLC; in data set [2] (pH 7.5, no NaCl) it was greater than 98% HPLC.

Turning to `CCCCc1nc2c(N)nc3ccccc3c2n1Cc1ccc(CNC(=O)COCC(=O)NCCOCCOCCOCCC(=O)NCCCC[C@H](NC(=O)[C@H](CC(C)C)NC(=O)[C@H](CCCNC(=N)N)NC(=O)[C@H](CCCNC(=N)N)NC(=O)[C@H](CC(C)C)NC(=O)[C@H](CC(C)C)NC(=O)[C@H](Cc2c[nH]cn2)NC(=O)[C@H](C)NC(=O)[C@H](CC(C)C)NC(=O)[C@H](CC(C)C)NC(=O)[C@H](C)NC(=O)[C@H](CC(C)C)NC(=O)[C@H](CC(C)C)NC(=O)[C@H](C)NC(=O)[C@H](Cc2c[nH]cn2)NC(=O)[C@H](CC(C)C)NC(=O)[C@H](CC(C)C)NC(=O)[C@H](CCCNC(=N)N)NC(=O)[C@H](CCCNC(=N)N)NC(C)=O)C(N)=O)cc1` [HL-12, Ac-RRLLHALLALLAHLLRRLK(ADJ12)-NH2] (Ac-RRLLHALLALLAHLLRRLK([PEG3-X1])-NH2), in data set [2], the “Solubility/appearance across buffer conditions” value is recorded as “change in appearance and/or HPLC solubility”. Moreover, the HPLC solubility in data set [2] (pH 5.2, NaCl 154 mM) was greater than 98% HPLC; in data set [2] (pH 5.2, no NaCl), greater than 98% HPLC; in data set [2] (pH 7.5, NaCl 154 mM), 0% HPLC; in data set [2] (pH 7.5, no NaCl) it was greater than 98% HPLC.

Turning to `CCCCc1nc2c(N)nc3ccccc3c2n1Cc1ccc(CNC(=O)COCC(=O)NCCOCCOCCOCCC(=O)NCCCC[C@H](NC(=O)[C@H](CC(C)C)NC(=O)[C@H](CCCNC(=N)N)NC(=O)[C@H](CCCNC(=N)N)NC(=O)[C@H](CC(C)C)NC(=O)[C@H](CC(C)C)NC(=O)[C@H](Cc2c[nH]cn2)NC(=O)[C@H](C)NC(=O)[C@H](CC(C)C)NC(=O)[C@H](CC(C)C)NC(=O)[C@H](C)NC(=O)[C@H](CC(C)C)NC(=O)[C@H](CC(C)C)NC(=O)[C@H](C)NC(=O)[C@H](Cc2c[nH]cn2)NC(=O)[C@H](CC(C)C)NC(=O)[C@H](CC(C)C)NC(=O)[C@H](CCCNC(=N)N)NC(=O)[C@H](CCCNC(=N)N)NC(=O)[C@@H](N)CCCCNC(C)=O)C(N)=O)cc1` [kHL-12, K(Ac)—RRLLHALLALLAHLLRRLK(ADJ12)-NH2] (H-K(Ac)RRLLHALLALLAHLLRRLK([PEG3-X1])-NH2; N-terminus and C-terminus assumed), in data set [3], the “Impact on body weight over time” value is reported as “limited impact on the body weight”.

Turning to `CCCCCCCCCCCCCCCCCC(=O)NCCCCOn1c(CCCC)nc2c(N)nc3ccccc3c21` [3M-052], the Clinical adverse events result in data set [5] is given as “induction of adverse events related to cytokine release syndrome”. In data set [6], the “Systemic release of the drug” value is “systemic release of the drug after administration of this formulation was still observed”. Further, the “Antitumoral activity” value in data set [1] is recorded as “comparable”. In addition, the “Impact on body weight over time” value in data set [3] was “pronounced loss in body weight”.
